Results on 1 substance are retold here after publication doi:10.1101/2024.12.30.630799.

One may read the stoichiometry N as the number of molecules, sites or subunits per partner or assembly.

In this experiment the target is BE-eRNP adenine base editor: bipartite NLS, TadA (ABE8.20-m variant), 32-amino acid glycine/serine-rich linker, S. pyogenes nCas9 (D10A, C80A), bipartite NLS, complexed with sgRNA (Escherichia coli | Streptococcus pyogenes). Briefly: not stated; oligomeric state of the purified eRNPs (protein combined with sgRNA); the method stands only in Supp Figures 1-3.

As to “BE-eRNP adenine base editor: bipartite NLS, TadA (ABE8.20-m variant), 32-amino acid glycine/serine-rich linker, S. pyogenes nCas9 (D10A, C80A), bipartite NLS, complexed with sgRNA (enzyme)”, the stoichiometry N came to 2.
